Experiments:
[1] = biological target: Negative control (amino acid sequence shown in SEQ ID NO: 2 in CN106046152A); assay: ELISA, negative control well, TG1 supernatant
[2] = biological target: MSLN on SKOV3 and Aspc-1 tumor cells (UniProt Q13421); assay: flow cytometry on SKOV3 tumor cells, anti-human IgG PE secondary, fitted curve
MSLN·His protein (human) = MSLN·His protein (human) (UniProt Q13421); assay: SPR (Biacore), antibody captured on protein A, MSLN·His as analyte
[3] = biological target: MSLN on SKOV3 and Aspc-1 tumor cells (UniProt Q13421); assay: flow cytometry on Aspc-1 tumor cells, anti-human IgG PE secondary, fitted curve
[4] = biological target: segment III of MSLN expressed on HEK293T cells (UniProt Q13421); assay: flow cytometry on HEK293T cells expressing MSLN segment III, anti-human IgG PE secondary, fitted curve
Sequence of segment III of MSLN expressed on HEK293T cells (Q13421 495-606 limits assumed): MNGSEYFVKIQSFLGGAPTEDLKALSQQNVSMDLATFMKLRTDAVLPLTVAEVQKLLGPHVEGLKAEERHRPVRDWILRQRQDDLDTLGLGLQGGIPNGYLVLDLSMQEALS

Sequence of MSLN·His protein (human) (Q13421 other isoform, or with tags, fused parts or gaps limits assumed): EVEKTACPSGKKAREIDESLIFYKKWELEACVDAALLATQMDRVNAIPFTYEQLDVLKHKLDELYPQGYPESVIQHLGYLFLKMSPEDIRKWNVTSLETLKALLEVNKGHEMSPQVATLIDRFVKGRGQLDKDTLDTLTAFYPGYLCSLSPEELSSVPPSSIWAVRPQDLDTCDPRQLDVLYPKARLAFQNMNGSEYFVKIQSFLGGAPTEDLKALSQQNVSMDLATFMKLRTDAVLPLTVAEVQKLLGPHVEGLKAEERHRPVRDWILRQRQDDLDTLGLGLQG
Sequence of MSLN on SKOV3 and Aspc-1 tumor cells (Q13421 other isoform, or with tags, fused parts or gaps limits assumed): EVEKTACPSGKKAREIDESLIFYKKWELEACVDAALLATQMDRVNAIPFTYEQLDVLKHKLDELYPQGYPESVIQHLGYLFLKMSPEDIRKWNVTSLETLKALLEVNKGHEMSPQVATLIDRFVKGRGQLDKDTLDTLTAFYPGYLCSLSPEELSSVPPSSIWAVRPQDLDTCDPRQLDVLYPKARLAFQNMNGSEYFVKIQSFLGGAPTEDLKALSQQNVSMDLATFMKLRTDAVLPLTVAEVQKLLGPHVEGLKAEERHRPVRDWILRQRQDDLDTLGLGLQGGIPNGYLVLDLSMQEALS

| ELISA (OD450) [1] [OD450] | Binder | also measured |
| --- | --- | --- |
| 0.0074 | M224 (VHH) VHH: QVQLVESGGGLVQPGGSLRLSCAASGFTFHYYAIGWFRQAPGKEREGVSCISSSGDSTWFSDSVKGRFTVSRDNAKNIVHLQMNNLKPEDTAVYYCAGTTRSGYVCYDAEPYDSWGQGTQVTVSS |  |
| 0.0074 | M191 (VHH) VHH: QVQLVESGGGLVQAGGSLRLSCAASASMGSISNMGWYRQAPGKERGNERNLVATIGSDGRTYYADSVKGRFTISRDNVKNTMILQMNFLKPEDTAMYYCAVEDRQRPGTENYYWGQGTQVTVSS |  |
| 0.007 | M169 (VHH) VHH: EVQLVESGGGTVQPGESLRLSCEASGAVSTINAMGWYRQTPEMRKLVATMGSGGNTYYADSVKGRFTISRDFAGNTVDLQMNDLKPEDTGVYFCAADKFGADIKEVAYWGKGTLVTVSS |  |
| 0.0074 | M197 (VHH) VHH: EVQLVESGGGLVQAGGSLRLSCAASGSHFGLNVVGWYRQAPGKQRELVASIGNSGRTTDYADSVKGRFTISKDNAQNTIYLQMNNLKPEDTAMYRCHLRVSVERGYWGQGTQVTVSS |  |
| 0.0082 | M344 (VHH) VHH: QVQLVESGGGLVQSGGSLRLSCVASGSAFSFDAMGWYRQFSATRRERQLVVATSRDGRTYYADSVKGRFTATRDNSKNSLYLEMNSLKPEDTAIYYCAAGDDPKNYSWGQGTQVTVSS |  |
| 0.0071 | M210 (VHH) VHH: QVQLVESGGGLVQPGGSLRLSCAASGITLDNYAIAWFRQAPGKKREGVSCISSNGNTYYQPSVKGRFTIARDNAKNTVYLHMNNLNPEDTAVYYCQVGQFSSSTTPVQAMSVMSLYADWGQGTQVTVSS |  |
| 0.0075 | M182 (VHH) VHH: QVQLVESGGGSVQAGGSLTLSCAASGAVSSINAMGWYRQTPEKVRQLVATMGSGGNTYYAASVKGRFTISRDYAKNTVALQMNHLLPEDTAVYYCAADRFGADIREVDYWGKGTQVTVSS |  |
| 0.0479 | M2339 (VHH) VHH: QLQLGASGGGLVQPGGSLRLSCALSGFTLRELDEFAIGWFRQAPGKEREGVSCISGTGGITHYADSVKGRFTISRDIAKTTVYLQMNSLNSEDTAVYYCAADERCTDRLIRPPTYWGQGTQVTVSS |  |

Continued, binder first:

| Binder | ELISA (OD450) [1] [OD450] | also measured |
| --- | --- | --- |
| M137 (VHH) VHH: QVQLVESGGGLVQAGGSLSLSCAASGSLSSINAMGWYRQLPEMRQLVATMGSDGKTYYADSVKGRFTISRDYAKYTVSLQMNNLRPEDTAIYYCAADRFGAPIHDVDYWGKGTLVTVSV | 0.0087 |  |
| M156 (VHH) VHH: QVQLVESGGGLVQAGGSLRLSCAVSGISFEYYAIGWFRQAPGKEREAVSCTTSGTTSGGGVTDYADSLKGRFTISRDVAKNTVYLQMNNLTPEDTAVYYCAADIHCRGYVLFVPSDFGNWGQGTQVTVSS | 0.0074 |  |
| M129 (VHH) VHH: QVQLVESGGGSAQAGGSLILSCVASANLFTIDALGWYRQAPGPKRELVAAISSGGNKYYADAVKGRFTISRDTLTKTMWLQMNNLKPEDTAMYYCAAEDYGLGQRSWGMGTQVTVSS | 0.007 |  |
| M047 (VHH) VHH: QVQLVETGGGSVQAGGSLRLSCAASGSIASIDAMGWYRQVPGKEWERELVATISSSNSDNKYYKDSVKGRFTISTNIAKNTWYLQMNNLKPEDTAMYYCAAEDYDTKDRFWGQGTQVTVSS | 0.018 |  |
| M012 (VHH) VHH: QVQLVESGGDLVQTGGSLRLSCVVSGSTFAINAMGWYRQAPGKERELVAAISSGGDSTHYADDVKGRFTISRDNAENTMYLQMKSLKPEDTAVYVCNARGCRDFHNPQALCVLRDYWGQGTQVTVSS | 0.0075 |  |
| M143 (VHH) VHH: EVQLVESGGGLVQAGGSLRLSCSASEKTFSIKYMGYYRQGPGIERKLVATIDTDGKTWYADSVKGRFTISRENGENEIGLEMNRLKPEDTAMYYCAGETGTYPKPEYWGQGTQVTVSS | 0.0085 |  |
| M119 (VHH) VHH: EVQLVESGGGLVQPGGSLRLSCVASGSDLSFDAMGWYRQFSATVRERQLVVATSRDGRIYYGDSVKGRFTASRDNLKNSVDLEMNNLKPEDTAIYYCAAGDDPKNYDWGPGTQVTVSS | 0.0071 |  |
| M001 (VHH) VHH: EVQLVESGGGLVQAGGSLRLSCAASGSIFNINAMGWYRQAPGKEWERELVATISSSNSDNTYYKDSVKGRFTISTNTAKNTWYLQMNSLKPEDTAMYYCAAENYDRKDRYWGQGTQVTVSS | 0.0184 |  |
| M003 (VHH) VHH: QVQLVESGGGLVQAGGSLRLSCTASGNIFSINAMGWYRQPPGKEWERELVATISSTNSDNTYYKESVKGRFTISTNTAKNTWYLQMNSLKPEDTAMYYCAAENFDRKDRYWAQGTQVTVSS | 0.0104 |  |
| YP218-IgG4 (antibody, from another filing, V domains shown) VH: QQQLEESGGGLVKPEGSLTLTCKASGFDLGFYFYACWVRQAPGKGLEWIACIYTAGSGSTYYASWAKGRFTISKASSTTVTLQMTSLAAADTATYFCARSTANTRSTYYLNLWGPGTLVTVSS VL: DVVMTQTPASVSEPVGGTVTIKCQASQRISSYLSWYQQKPGQRPKLLIFGASTLASGVPSRFKGSGSGTEYTLTISDLECADAATYYCQSYAYFDSNNWHAFGGGTEVVVRT |  | EC50 [2]: 6.96 nM; Kd (MSLN·His protein (human)): 3.1 nM; koff (MSLN·His protein (human)): 0.000123 s⁻¹; kon (MSLN·His protein (human)): 40200 M⁻¹ s⁻¹; EC50 [3]: 4.24 nM; EC50 [4]: 2.44 nM |
| M032 (VHH) VHH: EVQLVESGGGSVQAGGSLKISCAASGSVIDIGAMGWYRHITEKERKLVATINAGGNTYYADSVKGRFTISRDNAKYTVYLQMNSLKPEDTAMYYCAAEDINYTGTEAYYWGQGTQVTVSS | 0.0076 |  |
| M118 (VHH) VHH: EVQLVESGGGLVQAGGSLTLSCAASEHTFTIDAMGYYRQIPGRRNERQLVAAAGRTGTTYYNDAVKDRFTIYRDTSKETIILQMNNLRPEDTTMYYCAVERYSDQSRFFGPGTQVTVSS | 0.0074 |  |
| M044 (VHH) VHH: QVQVVESGGGFVQAGGSLRLSCAASTPIISIAYMGWYRQISEKERQLVATINSGGKTYYADSVKGRFTISRDNAKNTLYLQMNMLKPEDTGMYYCAASNKDYNDYDPDWGQGTQVTVSS | 0.0083 |  |
| M132 (VHH) VHH: QVQLVESGGGLVQAGGSLSLSCVASGDAFSFDAMGWYRQFSGKVNERQLVVATSRDGRTAYGERVKGRFTASRDNSKNTLSLVMNNLQVEDTAIYYCAAGDDPKDYYWGQGTQVTVSS | 0.007 |  |
| M004 (VHH) VHH: EVQLVESGGGLVQAGGSLRLSCAASESISSIAYMGWYRRISEKERNLVATISSTGSTYYADSVKGRFTISRDNAKNTMYLQMNRLKPEDTAIYYCAASNKAYNDYDPDWGQGTQVTVSS | 0.0085 |  |
| M2339-z1-1 (antibody, part only; not given: constant region, IgG4, part only) heavy, part: QLQLGASGGGLVQPGGSLRLSCALSGFTLRELDEFAIGWFRQAPGKEREGVSCISGTGGITHYADSVKGRFTISRDIAKNTVYLQMNSLNSEDTAVYYCAADERCTDRLIRPPTYWGQGTQVTVSS |  | Kd (MSLN·His protein (human)): 2270 nM; koff (MSLN·His protein (human)): 0.000739 s⁻¹; kon (MSLN·His protein (human)): 326 M⁻¹ s⁻¹ |
| M005 (VHH) VHH: EVQLVESGGGWVQSGGSLRLACAASGSSFGLNVVGWYRQAPDKQRELVASIGNGGRTTDYADSVKGRFTISSDNAKNTVFLQMNDLKPEDTAVYYCHLRASVTKGYWGQGTQVTVSS | 0.0072 |  |
| M126 (VHH) VHH: EVQLVESGGGWVQSGGSLRLACAASGDSFGLNVVGWYRLAPDKQRELVASIGNGGRTTDYADSVKGRFTISSDNAKNTVFLQMNDLKPEDTAMYYCHLRVSVTEGYWGQGTQVTVSS | 0.0068 |  |
| M010 (VHH) VHH: QVQLVESGGGLVQAGGSLRLSCAASGSVSSINAMGWYRQGTGEVRKLVATMGSGGNTYYADSVKGRFFITRDYSKNTVSLQMNNLTPEDSATYYCAADRFGASIHEVDYWGKGTLVTVSS | 0.007 |  |
| M050 (VHH) VHH: EVQLQESGGGLVQAGGSLRLSCAASGAVSSINAMGWYRQTPEKVRKLVATMGSGGNTYYADSVKGRFTISRDYAKNTVALQMNNLIPEDTAVYYCAADKFGADIHEVDYWGKGTLVTVSS | 0.0099 |  |

From patent US20240190986A1
